Biological target: T1, Lck phosphopeptide (ARLIEDNEpYTAAREG)
T1 chain: ARLIEDNEYTAAREG

B1: full length Hemagglutinin (HA) tagged LYP having W620 (protein)
chain: MDQREILQKFLDEAQSKKITKEEFANEFLKLKRQSTKYKADKTYPTTVAEKPKNIKKNRYKDILPYDYSRVELSLITSDEDSSYINANFIKGVYGPKAYIATQGPLSTTLLDFWRMIWEYSVLIIVMACMEYEMGKKKCERYWAEPGEMQLEFGPFSVSCEAEKRKSDYIIRTLKVKFNSETRTIYQFHYKNWPDHDVPSSIDPILELIWDVRCYQEDDSVPICIHCSAGCGRTGVICAIDYTWMLLKDGIIPENFSVFSLIREMRTQRPSLVQTQEQYELVYNAVLELFKRQMDVIRDKHSGTESQAKHCIPEKNHTLQADSYSPNLPKSTTKAAKMMNQQRTKMEIKESSSFDFRTSEISAKEELVLHPAKSSTSFDFLELNYSFDKNADTTMKWQTKAFPIVGEPLQKHQSLDLGSLLFEGCSNSKPVNAAGRYFNSKVPITRTKSTPFELIQQRETKEVDSKENFSYLESQPHDSCFVEMQAQKVMHVSSAELNYSLPYDSKHQIRNASNVKHHDSSALGVYSYIPLVENPYFSSWPPSGTSSKMSLDLPEKQDGTVFPSSLLPTSSTSLFSYYNSHDSLSLNSPTNISSLLNQESAVLATAPRIDDEIPPPLPVWTPESFIVVEEAGEFSPNVPKSLSSAVKVKIGTSLEWGGTSEPKKFDDSVILRPSKSVKLRSPKSELHQDRSSPPPPLPERTLESFFLADEDCMQAQSIETYSTSYPDTMENSTSSKQTLKTPGKSFTRSKSLKILRNMKKSICNSCPPNKPAESVQSNNSSSFLNFGFANRFSKPKGPRNPPPTWNI
Dephosphorylation of an Lck phosphopeptide by immunoprecipitated HA-tagged LYP; specific activity relative to LYP*R620: LYP*W620 displayed a 57.2% (±9.8%, n=5) higher specific activity when corrected for amount of protein

Source: patent US20080199514A1 (BURNHAM INSTITUTE, published 2008)
